The record followed here is patent EP4663662A1.

Read-outs that look alike come from different tables or passages of the source.

The term Kd denotes the constant that tells how readily two partners part at equilibrium. Usually koff stands for the first-order rate constant of dissociation. For orientation: kon means the second-order rate constant of association. A word on the EC50: it is the concentration giving half of the maximal effect.

The target in test [1] is cynomolgus monkey BCMA (cynomolgus monkey). Kind of test: flow cytometry, cynomolgus BCMA-CHOK1 cells; control. (In general: In flow cytometry, cells or beads pass a laser one at a time.)
The target of test [2] is human GPRC5D (human) (UniProt Q9NZD1). Kind of test: flow cytometry, NCI-H929 cells; control.
The target in test [3] is cynomolgus monkey BCMA (cynomolgus monkey). The test is described as follows: flow cytometry, cynomolgus BCMA-CHOK1 cells; control. The source holds these as a separate data set.
Test [4] deals with human GPRC5D (human) (UniProt Q9NZD1). Kind of test: flow cytometry, human GPRC5D-CHOK1 cells; control.
For test [5], the target named is human BCMA (human) (UniProt Q02223). The test is described as follows: flow cytometry, human BCMA-CHOK1 cells; control.
For test [6] the target is unchanged. The test is described as follows: flow cytometry, human BCMA-CHOK1 cells; control. This is another data set of the same source.
In test [7] the target is cynomolgus monkey GPRC5D (cynomolgus monkey). The test is described as follows: flow cytometry, cynomolgus GPRC5D-CHOK1 cells; control.
Test [8] shares this target. Described as above. The source holds these as a separate data set.
In test [9] the target is human CD3 protein (Acro, Cat. No. CDD-H52W1) (human) (UniProt P07766). The test is described as follows: SPR (Biacore), CD3 immobilised on CM5, antibody as analyte, 1:1 fit. A general note: Surface plasmon resonance follows binding to a sensor surface in real time, without labels.
The target of test [10] is cynomolgus monkey CD3 protein (Acro, Cat. No. CDD-C52W4) (cynomolgus monkey) (UniProt Q95LI5). The test is described as above.
Test [11] addresses human BCMA (human) (UniProt Q02223). The test is described as follows: flow cytometry, human BCMA-CHOK1 cells.
Test [12] addresses cynomolgus monkey CD3 on cyno PBMCs (cynomolgus monkey) (UniProt Q95LI5). The test is described as follows: flow cytometry, cyno PBMCs.
Test [13] has as its target human BCMA (human) (UniProt Q02223). The test is described as follows: flow cytometry, NCI-H929 cells (express BCMA and GPRC5D).
For test [14], the target named is human GPRC5D (human) (UniProt Q9NZD1). Kind of test: flow cytometry, human GPRC5D-CHOK1 cells.
Test [15] concerns the target human CD3 on cells (Jurkat cells, human PBMCs) (human) (UniProt P07766). Kind of test: flow cytometry, Jurkat cells.
In test [16] the target is cynomolgus monkey BCMA protein (Acro, Cat. No. BCA-C52H7) (cynomolgus monkey). Kind of test: SPR (Biacore), antibody captured by anti-human IgG Fc, BCMA as analyte, 1:1 fit.
Test [17] addresses human BCMA protein (Acro, Cat. No. BCA-H522y) (human) (UniProt Q02223). The description is as above.
Test [18] has as its target cynomolgus monkey BCMA (cynomolgus monkey). Kind of test: flow cytometry, cynomolgus BCMA-CHOK1 cells.
The target of a further test is soluble BCMA (UniProt Q02223). The test is described as follows: cell-based or functional assay.
Test [19] deals with human CD3 on cells (Jurkat cells, human PBMCs) (human) (UniProt P07766). The test is described as follows: flow cytometry, human PBMCs.
Test [20] has as its target human BCMA (human) (UniProt Q02223). The test is described as follows: flow cytometry, RPMI8226 cells (express BCMA and GPRC5D).
Test [21] concerns the target dual targets human BCMA and human GPRC5D on tumor cells (NCI-H929, RPMI8226) (human). The test is described as follows: flow cytometry, RPMI8226 cells (express BCMA and GPRC5D); negative control.
Test [22] concerns the target human GPRC5D (human) (UniProt Q9NZD1). The test is described as follows: flow cytometry, human GPRC5D-CHOK1 cells; negative control.
In test [23] the target is cynomolgus monkey CD3 on cyno PBMCs (cynomolgus monkey) (UniProt Q95LI5). The test is described as follows: flow cytometry, cyno PBMCs; negative control.
The target of test [24] is human BCMA (human) (UniProt Q02223). Kind of test: flow cytometry, human BCMA-CHOK1 cells; negative control.
Test [25] has as its target human CD3 on cells (Jurkat cells, human PBMCs) (human) (UniProt P07766). The test is described as follows: flow cytometry, Jurkat cells; negative control.
The target is the same in test [26]. The test is described as follows: flow cytometry, human PBMCs; negative control.
The target of test [27] is dual targets human BCMA and human GPRC5D on tumor cells (NCI-H929, RPMI8226) (human). The test is described as follows: flow cytometry, NCI-H929 cells (express BCMA and GPRC5D); negative control.
Chain of dual targets human BCMA and human GPRC5D on tumor cells (NCI-H929, RPMI8226) (human) (chain, as listed by the source, chain 1 of 2): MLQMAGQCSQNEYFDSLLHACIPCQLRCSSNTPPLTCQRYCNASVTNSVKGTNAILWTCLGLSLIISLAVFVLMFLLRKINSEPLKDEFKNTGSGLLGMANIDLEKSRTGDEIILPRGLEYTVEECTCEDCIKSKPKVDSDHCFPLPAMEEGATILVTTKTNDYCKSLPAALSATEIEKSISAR
Chain of dual targets human BCMA and human GPRC5D on tumor cells (NCI-H929, RPMI8226) (human) (chain, as listed by the source, chain 2 of 2): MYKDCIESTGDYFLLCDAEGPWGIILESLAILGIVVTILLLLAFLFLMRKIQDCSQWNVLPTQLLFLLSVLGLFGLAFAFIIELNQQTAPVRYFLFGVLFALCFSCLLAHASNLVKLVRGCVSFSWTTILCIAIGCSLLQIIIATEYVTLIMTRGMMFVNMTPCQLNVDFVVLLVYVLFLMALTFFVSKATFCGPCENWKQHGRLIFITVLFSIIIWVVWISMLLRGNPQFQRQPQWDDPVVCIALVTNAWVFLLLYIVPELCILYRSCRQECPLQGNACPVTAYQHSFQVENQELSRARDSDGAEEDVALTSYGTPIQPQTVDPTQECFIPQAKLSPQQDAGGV

Chain of cynomolgus monkey CD3 on cyno PBMCs (cynomolgus monkey) (Q95LI5 22-198): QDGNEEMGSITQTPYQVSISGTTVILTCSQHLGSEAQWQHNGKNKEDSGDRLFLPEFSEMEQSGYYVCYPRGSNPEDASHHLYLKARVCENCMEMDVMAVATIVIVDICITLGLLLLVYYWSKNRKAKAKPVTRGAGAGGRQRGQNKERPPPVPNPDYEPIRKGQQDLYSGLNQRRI
Chain of cynomolgus monkey BCMA (cynomolgus monkey) (Q02223 other isoform, or with tags, fused parts or gaps): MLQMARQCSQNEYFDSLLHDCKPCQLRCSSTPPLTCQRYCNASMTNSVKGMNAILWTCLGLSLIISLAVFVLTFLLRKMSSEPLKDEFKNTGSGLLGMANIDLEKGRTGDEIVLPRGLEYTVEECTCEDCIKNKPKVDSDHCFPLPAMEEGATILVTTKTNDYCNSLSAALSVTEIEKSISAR
Chain of human CD3 protein (Acro, Cat. No. CDD-H52W1) (human) (P07766 23-126): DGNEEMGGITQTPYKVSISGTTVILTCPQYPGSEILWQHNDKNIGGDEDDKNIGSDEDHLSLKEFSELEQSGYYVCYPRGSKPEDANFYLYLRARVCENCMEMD
Chain of human GPRC5D (human) (Q9NZD1 whole entry): as the sequence (chain, as listed by the source, chain 2 of 2) above
Chain of human BCMA protein (Acro, Cat. No. BCA-H522y) (human) (Q02223 1-54 limits assumed): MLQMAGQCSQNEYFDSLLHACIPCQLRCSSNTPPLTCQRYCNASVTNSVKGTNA
Chain of human CD3 on cells (Jurkat cells, human PBMCs) (human) (P07766 23-207): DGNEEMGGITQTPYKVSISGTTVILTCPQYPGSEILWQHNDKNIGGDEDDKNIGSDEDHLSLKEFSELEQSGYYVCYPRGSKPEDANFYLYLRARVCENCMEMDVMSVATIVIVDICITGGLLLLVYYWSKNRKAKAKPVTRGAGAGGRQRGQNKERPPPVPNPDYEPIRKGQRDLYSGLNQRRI
Chain of human BCMA (human) (Q02223 whole entry): as the sequence (chain, as listed by the source, chain 1 of 2) above
Chain of cynomolgus monkey CD3 protein (Acro, Cat. No. CDD-C52W4) (cynomolgus monkey) (Q95LI5 22-117): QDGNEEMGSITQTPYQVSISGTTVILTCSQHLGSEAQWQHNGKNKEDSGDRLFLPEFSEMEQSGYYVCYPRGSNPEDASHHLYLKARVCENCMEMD
Chain of cynomolgus monkey GPRC5D (cynomolgus monkey) (Q9NZD1 other isoform, or with tags, fused parts or gaps): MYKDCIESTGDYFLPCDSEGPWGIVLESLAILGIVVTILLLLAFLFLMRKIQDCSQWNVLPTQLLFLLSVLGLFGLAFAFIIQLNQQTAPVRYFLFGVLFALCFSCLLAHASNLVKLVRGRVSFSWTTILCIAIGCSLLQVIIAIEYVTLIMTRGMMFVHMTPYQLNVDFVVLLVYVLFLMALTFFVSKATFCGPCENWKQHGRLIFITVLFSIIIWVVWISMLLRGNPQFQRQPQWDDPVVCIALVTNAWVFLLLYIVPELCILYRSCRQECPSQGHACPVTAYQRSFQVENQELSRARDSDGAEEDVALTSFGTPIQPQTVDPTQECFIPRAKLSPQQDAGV
Chain of soluble BCMA (Q02223 1-54 limits assumed): as the sequence (Q02223 1-54 limits assumed) above

As for IgG1 AA (antibody), the Top MFI in test [1] came to 382 MFI; with human GPRC5D (human) [2], 178 MFI; in test [3] it was 82.6 MFI; with human GPRC5D (human) [4], 36 MFI; with human BCMA (human) [5], 232 MFI; in the test with human BCMA (human) [6], 89.1 MFI. The Top MFI in test [7] came out at 1840 MFI; in test [8], 85 MFI.
In test [9], “Talquetamab analogue (GPRC5D/CD3) (bispecific antibody)” registered a Kd of 18 nM, a koff of 0.00201 s⁻¹ and a kon of 112000 M⁻¹ s⁻¹. In addition, in test [10], the Kd came to 22.2 nM, the koff came to 0.00379 s⁻¹ and the kon worked out at 170000 M⁻¹ s⁻¹.
As to “Teclistamab analogue (BCMA/CD3) (bispecific antibody)”, the EC50 amounted to 2.63 nM with human BCMA (human) [11]; 55.8 nM in test [12]; 2.43 nM with human BCMA (human) [13]; 3.22 nM in test [15]; 15.3 nM in test [18]; 6.06 nM in [19]. For the same substance, in the test with human BCMA (human) [20], the EC50 was 1.17 nM. Further, the Top MFI is 2280 MFI with human BCMA (human) [11]; 2060 MFI in test [12]; 669 MFI in the test with human BCMA (human) [13]; 160 MFI with human GPRC5D (human) [14]; 825 MFI in test [15]; 1770 MFI in test [18]. The Top MFI was determined as 672 MFI in test [19] and 169 MFI in the test with human BCMA (human) [20]. Moreover, the Kd was 8.49 nM in test [16], 0.379 nM in [17], 21 nM in [9] and 21.1 nM in [10]. For the same substance, the koff in [16] worked out at 0.0235 s⁻¹; in [17], 0.00135 s⁻¹; in [9], 0.00522 s⁻¹; in [10], 0.00336 s⁻¹. Further, the kon in test [16] is 2.77e+06 M⁻¹ s⁻¹; in test [17], 3.55e+06 M⁻¹ s⁻¹; in test [9], 248000 M⁻¹ s⁻¹; in test [10] it was 159000 M⁻¹ s⁻¹. Moreover, in the test with soluble BCMA, the Ratio (EC50) of TDCC on NCI-H929, 2.5 ug/ml BCMA against 0 ug/ml BCMA came out at 21 fold. Moreover, the fold change of TDCC EC50 on NCI-H929 in the presence of 2500 ng/ml soluble BCMA in the test with soluble BCMA was 25 fold.
Regarding “hIgG1 LALA isotype (Biointron, Cat. No. B109802) (antibody)”, the Top MFI in test [21] was 112 MFI; with human GPRC5D (human) [22], 100 MFI; in test [23], 93.3 MFI; with human BCMA (human) [24], 119 MFI; in [25], 77.6 MFI; in test [26] it was 96.1 MFI. In [27], this substance had a Top MFI of 104 MFI.
